Results published in patent US20090281024A1 (RAPTOR PHARMACEUTICALS, published 2009).
Changes are numbered by the printed parent chain.

What was measured:
LRP1 CR3-5 [1] = biological target: T1, LRP1 CR3-5 (human); test: solid-phase assay, coated CR protein
T1 construct: range 852-973; also called L1 CR3-5; LRP1 CR3-S [sic]
Protocol: (§1) Wells were washed with TBSTC and bound ligands detected with polyclonal anti-RAP (BP41/42, 1:1,000, BioMarin). Excess primary antibody was removed and wells washed before incubation with the secondary antibody, HRP-conjugated goat anti rabbit IgG (Bio-Rad). After washing, TMB substrate solutions (Bio-Rad) were added to detect HRP. Color development was stopped with 1N HCl. Absorption at 450 nm was measured with a microplate spectrophotometer (Molecular Devices). Data were plotted and Kd values derived by non-linear regression with the assumption of single-site binding (GraphPad Prism).
Next, the binding of RAP d3 and MegaRAP1 d3 proteins to LRP1 CR3-5 and LRP2 CR89 was assessed. […] In all cases, 10 mM EGTA prevented binding of both RAP d3 and MegaRAP1 d3 to CR proteins. Since calcium was the only divalent metal ion present in the binding buffer, this observation is consistent with both RAP d3 and MegaRAP1 d3 binding to calcium-loaded CR pairs. […] Therefore, wild-type RAP d3 and MegaRAP1 d3 have inverted binding preferences for these two receptor fragments.

LRP1 CR3-5 [2] = biological target: T1, LRP1 CR3-5; test: solid-phase assay, coated CR protein (FIG. 4)
Protocol: Solid phase binding assays—Purified, refolded CR protein (1 μg) was bound to Nunc Maxisorp™ 96-well plates in TBS pH 8 supplemented with 5 mM CaCl₂ (TBSC) overnight at 4° C. Wells were washed with TBSC and then blocked with TBSC containing 2% bovine serum albumin (BSA). RAP ligands were then incubated with the immobilized receptor at a range of concentrations for 2 hours in the above blocking buffer supplemented with 0.05% Tween-20 at room temperature. Control wells contained no added ligand. As an additional control, to determine whether the absence of calcium affected binding, 10 mM EGTA was included in the incubation medium for some samples. Wells were washed with TBSTC and bound ligands detected with polyclonal anti-RAP (BP41/42, 1:1,000, BioMarin). Excess primary antibody was removed and wells washed before incubation with the secondary antibody, HRP-conjugated goat anti rabbit IgG (Bio-Rad). After washing, TMB substrate solutions (Bio-Rad) were added to detect HRP. Color development was stopped with 1N HCl. Absorption at 450 nm was measured with a microplate spectrophotometer (Molecular Devices). […]
The binding of wild-type RAP d3 to each CR pair or set of overlapping pairs was then measured by solid-phase assay (FIG. 4). […] Binding of RAP d3 to MAT CR12 and CR34, measured in a separate set of experiments, was also undetectable. […]

LRP1 CR3-5 [3] = biological target: T1, LRP1 CR3-5; test: solid-phase assay, coated CR protein (same value as Table 1)
LRP2 CR89 Y1042W R1088D = biological target: T2, LRP2 CR89 Y1042W R1088D (human, UniProt P98164 1022-1105); test: solid-phase assay, coated CR protein
T2 construct: also called WVWD; not shown: N-terminal hexahistidine and S-peptide tag stretch of pET30(+)a
T2 chain: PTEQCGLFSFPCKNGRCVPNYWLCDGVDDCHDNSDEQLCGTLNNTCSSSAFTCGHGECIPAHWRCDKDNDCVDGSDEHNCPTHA
Protocol: as §1
(§2) One premise of this work was that amino acids at A, C, A′ and C′ within the calcium-binding loops of a CR pair were key determinants of binding affinity for RAP and would be similarly important for binding of RAP variants. To test this idea, mutant LRP2 CR89 were prepared in which the native, non-canonical residues at these positions were sequentially substituted with the non-native, canonical residues. As defined above, the A, C, A′, C′ string for LRP2 CR89 is YVWR. Mutants included LRP2 CR89Y1042W (WVWR), LRP2 CR89V1047D (YDWR), LRP2 CR89R1088D (YVWD), LRP2 CR89V1047D R1088D (YDWD), LRP2 CR89 Y1042W V1047D R1088D (WDWD), LRP2 CR89Y1042W V1047D (WDWR), LRP2 CR89Y1042W R1088D (WVWD). Binding to both RAP d3 and MegaRAP1 d3 were measured for each LRP2 CR89 mutant by solid-phase assay. […] The A′ position in LRP2 CR89 is a tryptophan, the canonical residue for wild-type RAP d3 binding, and was not mutated in our studies. […] We did see a small increase in binding of RAP d3 to the WVWD and WDWD combinations at A, C, A′ and C′.

LRP2 CR89 V1047D R1088D = biological target: T3, LRP2 CR89 V1047D R1088D (human, UniProt P98164 1022-1105); test: solid-phase assay, coated CR protein
T3 construct: also called YDWD; not shown: N-terminal hexahistidine and S-peptide tag stretch of pET30(+)a
T3 chain: T2 chain with W22Y, V27D
Protocol: as §1, §2

LRP2 CR89 V1047D = biological target: T4, LRP2 CR89 V1047D (human, UniProt P98164 1022-1105); test: solid-phase assay, coated CR protein
T4 construct: also called YDWR; not shown: N-terminal hexahistidine and S-peptide tag stretch of pET30(+)a
T4 chain: T2 chain with W22Y, V27D, D68R
Protocol: as §1, §2

T1 sequence (Q07954 852-973): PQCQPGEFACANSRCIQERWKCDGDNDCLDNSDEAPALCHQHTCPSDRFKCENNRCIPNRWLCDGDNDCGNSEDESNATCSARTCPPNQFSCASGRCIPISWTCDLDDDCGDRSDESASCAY

% max binding (LRP1 CR3-5 [1]): 76%
Kd (LRP1 CR3-5 [1]): 16 nM
Kd (LRP1 CR3-5 [2]): 11 nM
Kd (LRP1 CR3-5 [3]): 16 nM
% max bind (LRP2 CR89 Y1042W R1088D): 16%
% max bind (LRP2 CR89 V1047D R1088D): 6%
% max bind (LRP2 CR89 V1047D): 6%
B1: RAP d3 (wild-type third domain of the receptor-associated protein) (ligand, human, UniProt P30533 235-353, looked up)
chain: LDRLRRVSHQGYSTEAEFEEPRVIDLWDLAQSANLTDKELEAFREELKHFEAKIEKHNHYQKQLEIAHEKLRHAESVGDGERVSRSREKHALLEGRTKELGYTVKKHLQDLSGRISRAR
notes: range 201-319 (mature RAP numbering); Expressed in E. coli from pET30(+)a; also called wild-type RAP d3; not shown: N-terminal hexahistidine and S-peptide tags of pET30(+)a
